Measurements: US20070161060A1 (published 2007)
One block for each molecule: values may come before it.

How the values were obtained:
[1] = biological target: AP2 adaptor protein complex (endogenous); experiment: cell-based or functional assay
[2] = biological target: endogenous PIPKIγ of HEK293 cells (UniProt O60331); experiment: co-IP from HEK293 cells expressing the Myc-tagged tail
[3] = biological target: AP2 adaptor protein complex (endogenous)
β-catenin = biological target: T1, β-catenin (UniProt P35222 2-781); experiment: immunoprecipitation from HEK293 cells
T1 sequence (looked up): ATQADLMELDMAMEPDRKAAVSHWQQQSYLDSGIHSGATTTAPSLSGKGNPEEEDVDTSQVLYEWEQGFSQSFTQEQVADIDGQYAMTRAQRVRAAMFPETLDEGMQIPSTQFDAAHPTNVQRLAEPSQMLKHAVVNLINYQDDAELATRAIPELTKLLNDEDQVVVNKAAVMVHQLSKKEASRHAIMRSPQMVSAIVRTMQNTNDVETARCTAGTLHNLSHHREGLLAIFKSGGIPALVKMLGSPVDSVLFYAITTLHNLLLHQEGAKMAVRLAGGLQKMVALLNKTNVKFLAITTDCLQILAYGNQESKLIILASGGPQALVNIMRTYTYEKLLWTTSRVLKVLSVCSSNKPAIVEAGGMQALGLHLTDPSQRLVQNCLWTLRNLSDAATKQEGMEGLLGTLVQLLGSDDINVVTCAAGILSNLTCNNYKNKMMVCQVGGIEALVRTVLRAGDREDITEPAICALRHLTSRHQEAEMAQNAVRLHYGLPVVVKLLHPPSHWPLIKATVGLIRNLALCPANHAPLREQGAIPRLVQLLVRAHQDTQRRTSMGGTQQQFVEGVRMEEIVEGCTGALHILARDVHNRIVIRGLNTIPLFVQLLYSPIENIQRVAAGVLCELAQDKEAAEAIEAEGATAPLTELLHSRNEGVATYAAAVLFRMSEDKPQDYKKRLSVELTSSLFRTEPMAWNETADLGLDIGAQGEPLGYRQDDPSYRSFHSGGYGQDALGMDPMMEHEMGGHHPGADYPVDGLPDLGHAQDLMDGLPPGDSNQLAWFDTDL

Sequence of endogenous PIPKIγ of HEK293 cells (O60331 whole entry): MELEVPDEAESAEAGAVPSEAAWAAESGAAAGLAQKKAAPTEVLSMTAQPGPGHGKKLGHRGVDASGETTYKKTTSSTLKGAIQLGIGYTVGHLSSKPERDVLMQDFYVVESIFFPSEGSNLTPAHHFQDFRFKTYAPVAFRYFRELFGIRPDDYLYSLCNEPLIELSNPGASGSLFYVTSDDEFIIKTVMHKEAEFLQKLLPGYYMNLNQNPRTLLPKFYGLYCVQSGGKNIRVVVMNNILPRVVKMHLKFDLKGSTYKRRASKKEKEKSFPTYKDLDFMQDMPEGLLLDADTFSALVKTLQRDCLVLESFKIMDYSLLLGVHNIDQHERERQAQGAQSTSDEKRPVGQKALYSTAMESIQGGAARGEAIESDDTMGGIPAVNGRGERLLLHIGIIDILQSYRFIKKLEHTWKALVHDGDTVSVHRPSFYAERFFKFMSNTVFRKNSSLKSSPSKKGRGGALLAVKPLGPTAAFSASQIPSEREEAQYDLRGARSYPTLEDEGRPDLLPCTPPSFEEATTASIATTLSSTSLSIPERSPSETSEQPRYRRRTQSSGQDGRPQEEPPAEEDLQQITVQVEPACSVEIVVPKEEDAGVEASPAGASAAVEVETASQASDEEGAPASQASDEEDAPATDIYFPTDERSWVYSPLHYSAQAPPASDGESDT

- internalized ALEXA Fluor 647 transferrin, mean fluorescence intensity relative to nonexpressing cells (flow cytometry, MDCK) [1]: > 40 % increase
Molecule: HA-tagged wild-type PIPKIγ661 (from UniProt O70161 1-661) (enzyme)

- fold affinity against the monomer [2]: 10 fold
Molecule: c-Myc-tagged dimeric E-cadherin C-terminus (Myc-HR-ECDT) (from UniProt P12830 731-882)

B1: HA-tagged PIPKIγ635 (protein)
chain: MELEVPDEAESAEAGAVTAEAAWSAESGAAAGMTQKKAGLAEAPLVTGQPGPGHGKKLGHRGVDASGETTYKKTTSSTLKGAIQLGIGYTVGNLSSKPERDVLMQDFYVVESIFFPSEGSNLTPAHHFQDFRFKTYAPVAFRYFRELFGIRPDDYLYSLCNEPLIELSNPGASGSVFYVTSDDEFIIKTVMHKEAEFLQKLLPGYYMNLNQNPRTLLPKFYGLYCVQSGGKNIRVVVMNNVLPRVVKMHLKFDLKGSTYKRRASKKEKEKSLPTYKDLDFMQDMPEGLLLDSDTFGALVKTLQRDCLVLESFKIMDYSLLLGVHNIDQQERERQAEGAQSKADEKRPVAQKALYSTAMESIQGGAARGEAIETDDTMGGIPAVNGRGERLLLHIGIIDILQSYRFIKKLEHTWKALVHDGDTVSVHRPSFYAERFFKFMSSTVFRKSSSLKSSPSKKGRGALLAVKPLGPTAAFSASQIPSEREDVQYDLRGARSYPTLEDEGRPDLLPCTPPSFEEATTASIATTLSSTSLSIPERSPSDTSEQPRYRRRTQSSGQDGRPQEEPHAEDLQKITVQVEPVCGVGVVPKEEGAGVEVPPCGASAAASVEIDAASQASEPASQASDEEDAPSTDIYF
- transferrin endocytosis (MDCK stable line) [3]: had no appreciable effect on transferrin endocytosis

- binding result (β-catenin): binds
B2: E-cadherin Val832Met (receptor, UniProt P12830 155-882, looked up)
chain: DWVIPPISCPENEKGPFPKNLVQIKSNKDKEGKVFYSITGQGADTPPVGVFIIERETGWLKVTEPLDRERIATYTLFSHAVSSNGNAVEDPMEILITVTDQNDNKPEFTQEVFKGSVMEGALPGTSVMEVTATDADDDVNTYNAAIAYTILSQDPELPDKNMFTINRNTGVISVVTTGLDRESFPTYTLVVQAADLQGEGLSTTATAVITVTDTNDNPPIFNPTTYKGQVPENEANVVITTLKVTDADAPNTPAWEAVYTILNDDGGQFVVTTNPVNNDGILKTAKGLDFEAKQQYILHVAVTNVVPFEVSLTTSTATVTVDVLDVNEAPIFVPPEKRVEVSEDFGVGQEITSYTAQEPDTFMEQKITYRIWRDTANWLEINPDTGAISTRAELDREDFEHVKNSTYTALIIATDNGSPVATGTGTLLLILSDVNDNAPIPEPRTIFFCERNPKPQVINIIDADLPPNTSPFTAELTHGASANWTIQYNDPTQESIILKPKMALEVGDYKINLKLMDNQNKDQVTTLEVSVCDCEGAAGVCRKAQPVEAGLQIPAILGILGGILALLILILLLLLFLRRRAVVKEPLLPPEDDTRDNVYYYDEEGGGEEDQDFDLSQLHRGLDARPEVTRNDVAPTLMSVPRYLPRPANPDEIGNFIDENLKAADTDPTAPPYDSLLMFDYEGSGSEAASLSSLNSSESDKDQDYDYLNEWGNRFKKLADMYGGGEDD
notes: whole, on cells; Expressed in HEK293 cells and co-immunoprecipitated from lysates; also called Val832Met E-cadherin mutant
